Numbering of substitutions follows the chain as printed.
B1: antibody MAb1 (antibody, IgG1, V domains shown)
VH: EVMLVESGGGLVKPGGSLKLSCAASGFTFSSYAMSWVRQTPEKRLEWVATISSGGSYIYYLDSVKGRFTISRDNAKNTLYLQMSSLRSEDTAMYYCARPAYYGNPAMDYWGQGTSVTVSS
VL: DILMTQSQKFMSTSVGDRVSVTCKASQNVGTNVAWYQQKPGQSPKPLIYSASYRYSGVPDRFTGSGSGTDFTLTISNVQSEDLAEYFCQQYNSYPLYTFGGGTKLEIK
B2: antibody MAb3 (antibody, IgG1, V domains shown)
VH: EVKLVESGGGLVKPGGSLTLPCAASGFTFSRYAMSWVRQTPEKRLEWVASISSGGDTYYPDSVKGRFTVSRDNARNILFLQMSSLRSEDTGMYYCARVNYYDSSFLDWWGQGTTLTVSS
VL: B1 VL with L3V, K9R, S14L, V15E, P46A, S93N
notes: Murine monoclonal from hybridoma, IgG1, kappa
B3: antibody MAb4 (antibody, IgG1, V domains shown)
VH: EVQLVESGGGLVKPGGSLKLSCAASGFTFSSYDMSWVRQTPEKRLEWVAFISSYGGRTYYADTVKGRFTISRDNAKNTLYLQMSSLKSEDTAMFYCAAHYFGTSGPFAYWGQGTLVTVSA
VL: DIQMTQSPASLSASVGETVTITCRASENIYSYFAWYQQKQGKSPQLLVYNAKILAEGVPSRFSGSGSGTQFSLKINSLQPEDFGTYYCQHHYGIPFTFGSGTKLELK
notes: as for B2
B4: antibody MAb5 (antibody, IgG1, V domains shown)
VH: ELQLVESGGVLVKPGGSLKLSCAASGFAFSSYDMSWVRQTPEKRLEWVTYINSGGGITYYPDTVKGRFTISRDNARNTLYLQMSSLKSEDTAIYYCTAHYFGSSGPFAYWGQGTLVTVSA
VL: B3 VL with F33L, I53T, A55T, T85S, I94T, L106I
notes: as for B2

biological target: T1, human CEACAM5 expressed on the surface of tumor cells (human, UniProt P06731 35-685); assay: flow cytometry on CR-IGR-034P primary colon tumor cells
T1 construct: Endogenous CEACAM5 of human tumor cells; also called hCEACAM5 on MKN45 cells; CEACAM5 on CR-IGR-034P primary colon tumor cells
T1 sequence: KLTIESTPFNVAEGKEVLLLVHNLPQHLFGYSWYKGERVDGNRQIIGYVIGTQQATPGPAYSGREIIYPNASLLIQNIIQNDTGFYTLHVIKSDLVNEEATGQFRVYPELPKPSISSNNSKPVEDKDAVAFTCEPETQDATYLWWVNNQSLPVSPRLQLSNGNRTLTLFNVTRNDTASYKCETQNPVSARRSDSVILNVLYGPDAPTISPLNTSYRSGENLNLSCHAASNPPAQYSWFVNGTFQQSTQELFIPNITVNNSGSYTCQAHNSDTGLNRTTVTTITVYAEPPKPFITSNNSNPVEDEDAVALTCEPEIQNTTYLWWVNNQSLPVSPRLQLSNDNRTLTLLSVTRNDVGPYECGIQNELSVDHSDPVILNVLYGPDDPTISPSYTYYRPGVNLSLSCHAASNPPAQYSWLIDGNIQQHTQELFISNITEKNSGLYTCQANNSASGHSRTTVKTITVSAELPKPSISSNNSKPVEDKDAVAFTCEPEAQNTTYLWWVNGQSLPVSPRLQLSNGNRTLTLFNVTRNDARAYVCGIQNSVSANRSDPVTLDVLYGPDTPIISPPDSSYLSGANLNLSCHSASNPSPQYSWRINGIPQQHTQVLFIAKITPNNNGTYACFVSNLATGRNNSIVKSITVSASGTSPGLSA
Description: Advanced human primary colon tumor CR-IGR-034P (Julien et al., Clin Cancer Res Oct. 1, 2012 18:5314-5328) was obtained from Patient-derived xenograft in mice. Tumor CR-IGR-034P was enzymatically dissociated using collagenase Type IV (Invitrogen; #17104-019) and deoxyribonuclease I (Invitrogen; #18047-019) for 1 h at […], Cell viability was estimated by Viacount application using Guava® easyCyte™ 8HT Flow Cytometry System. […] 100 μL/well of goat anti-mouse IgG conjugated with Alexa647 (Invitrogen; # A2135) or goat anti-human IgG conjugated with Alexa488 (Invitrogen; # A11013) was added for 45 min at 4° C. and washed three times with PBS 1% BSA. The antibody binding was evaluated after centrifugation and resuspension of cells by adding 200 pliwell PBS 1% BSA and read using Guava® easyCyte™ 8HT Flow Cytometry System. Apparent KD and EC50 values were estimated using BIOST@T-BINDING and BIOST@T-SPEED softwares, respectively.

B1 was tested. Which EC50 did it give?
The EC50 was 1 nM.

B2 was tested. Which EC50 did it give?
Its EC50 is 2.8 nM.

B3 was tested. Which EC50 did it give?
The EC50 was 0.2 nM.

B4 was tested. Which EC50 did it give?
Its EC50 is 1.4 nM.

biological target: T2, hCEACAM5, human CEACAM5 ECD (35-685) (human, UniProt P06731 35-685); assay: ELISA, murine hybridoma mAb
T2 construct: produced in HEK293; also called human CEACAM5 protein; human CEACAM5 extracellular domain
T2 sequence: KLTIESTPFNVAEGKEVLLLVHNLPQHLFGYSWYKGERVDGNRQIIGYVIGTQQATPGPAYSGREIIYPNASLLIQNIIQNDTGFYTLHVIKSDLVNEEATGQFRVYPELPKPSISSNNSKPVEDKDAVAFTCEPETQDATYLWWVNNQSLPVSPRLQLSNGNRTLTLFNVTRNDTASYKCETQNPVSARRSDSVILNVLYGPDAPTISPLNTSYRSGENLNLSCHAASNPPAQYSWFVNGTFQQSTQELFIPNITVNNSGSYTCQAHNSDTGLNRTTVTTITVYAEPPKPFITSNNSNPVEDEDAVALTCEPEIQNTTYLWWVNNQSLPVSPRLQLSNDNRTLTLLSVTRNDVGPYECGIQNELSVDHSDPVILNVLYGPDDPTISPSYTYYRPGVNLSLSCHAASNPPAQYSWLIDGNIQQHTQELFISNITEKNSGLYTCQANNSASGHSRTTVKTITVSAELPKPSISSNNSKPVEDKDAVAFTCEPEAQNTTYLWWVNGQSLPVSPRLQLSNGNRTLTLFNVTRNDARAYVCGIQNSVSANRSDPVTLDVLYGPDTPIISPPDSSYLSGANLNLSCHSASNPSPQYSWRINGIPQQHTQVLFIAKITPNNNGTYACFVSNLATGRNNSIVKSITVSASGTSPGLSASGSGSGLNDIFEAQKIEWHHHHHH

For B2, which EC50 is on record?
The EC50 was 0.36 nM.

For B3, which EC50 is on record?
The EC50 was 0.08 nM.

Which EC50 does the source give for B4 here?
Its EC50 is 0.4 nM.

Biological target: T3, cCEACAM5, M. fascicularis CEACAM5 ECD (35-688) (Macaca fascicularis)
T3 construct: ECD followed by a 24 amino acid extension containing a His-Tag; also called cynomolgus CEACAM5; monkey CEACAM5
T3 chain: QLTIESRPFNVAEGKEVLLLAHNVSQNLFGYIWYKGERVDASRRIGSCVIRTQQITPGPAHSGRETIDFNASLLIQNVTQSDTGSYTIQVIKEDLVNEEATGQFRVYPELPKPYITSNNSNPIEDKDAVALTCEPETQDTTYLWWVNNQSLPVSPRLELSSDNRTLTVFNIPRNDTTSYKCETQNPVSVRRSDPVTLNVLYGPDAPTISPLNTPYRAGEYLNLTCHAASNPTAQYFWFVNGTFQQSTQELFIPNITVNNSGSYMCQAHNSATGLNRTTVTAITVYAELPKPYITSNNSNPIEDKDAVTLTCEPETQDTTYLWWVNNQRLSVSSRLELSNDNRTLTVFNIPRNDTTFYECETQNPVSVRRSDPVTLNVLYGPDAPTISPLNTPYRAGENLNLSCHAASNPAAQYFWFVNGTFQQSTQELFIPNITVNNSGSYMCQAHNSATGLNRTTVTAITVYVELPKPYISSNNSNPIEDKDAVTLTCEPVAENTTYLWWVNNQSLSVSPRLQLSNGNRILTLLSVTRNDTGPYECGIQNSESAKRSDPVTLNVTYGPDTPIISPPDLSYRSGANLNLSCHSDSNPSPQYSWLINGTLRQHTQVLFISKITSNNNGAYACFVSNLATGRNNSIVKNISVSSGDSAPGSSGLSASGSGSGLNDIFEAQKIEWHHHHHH
Assay: ELISA, murine hybridoma mAb

B1 was tested. Which EC50 did it give?
The EC50 was 1.18 nM.

B2 was tested. Which EC50 did it give?
Its EC50 is 3.72 nM.

With B3 as the binder, how does the EC50 read?
Its EC50 is 0.05 nM.

How did the EC50 turn out when B4 was run?
The EC50 was 0.45 nM.

biological target: T2, hCEACAM5, human CEACAM5 ECD (35-685); assay: ELISA, coated CEACAM5
Description: (§1) All CEACAM5-specific mAbs were assessed for their ability to bind human and primate CEACAM5 protein by ELISA. Plates were coated with human or primate CEACAM5 protein, anti-hCEACAM5 mAbs were added to the plate and detected with rabbit anti-mouse IgG conjugated with horseradish peroxidase (Sigma; # A9044). The antibody binding was visualized by adding TMB-H2O2 buffer and read at a wavelength of 450 nm.

Which EC50 does the source give for B1 here?
The EC50 was 0.53 nM.

Which EC50 does the source give for B2 here?
Its EC50 is 0.36 nM.

For B3, which EC50 is on record?
Its EC50 is 0.08 nM.

Which EC50 does the source give for B4 here?
Its EC50 is 0.4 nM.

Biological target: T3, cCEACAM5, M. fascicularis CEACAM5 ECD …
Assay: ELISA, coated CEACAM5
Description: as §1

For B1, which EC50 is on record?
Its EC50 is 1.18 nM.

And the “Ratio c/h (EC50 on cCEACAM5 against EC50 on hCEACAM5)” value (“Ratio c/h” for short)?
Its value is 2.2.

Which EC50 does the source give for B2 here?
The EC50 was 3.72 nM.

And the “Ratio c/h” value?
Its value is 10.

Which EC50 does the source give for B3 here?
The EC50 was 0.05 nM.

What about the “Ratio c/h” value of the same binder?
The value was 0.6.

Which results are given for B4?
EC50: 0.45 nM; Ratio c/h (EC50 on cCEACAM5 against EC50 on hCEACAM5): 1.1
